Data published in patent US20130196923A1, “NOVEL PEPTIDES WHICH HAVE ANALGESIC EFFECTS AND WHICH INHIBIT ASIC CHANNELS” (CENTRE NATIONAL DE LA RESERCHE SCIENTIFIQUE-CNRS, published 2013).
Like-named read-outs stand apart in the source and are kept apart here.

What was measured:
[1] = biological target: rat homomeric ASIC1b channel (rat) (UniProt P55926)
[2] = biological target: rat homomeric ASIC1b channel (rat) (UniProt P55926); remark: listed apart in the source
[3] = biological target: rat homomeric ASIC1a channel (rat, UniProt P55926); experiment: cell-based or functional assay
[4] = biological target: human homomeric ASIC1a channel (human, UniProt P78348); experiment: cell-based or functional assay
[5] = biological target: rat heteromeric ASIC1a+ASIC1b channel (rat, UniProt P55926); experiment: cell-based or functional assay
[6] = biological target: rat heteromeric ASIC1a+ASIC2a channel (rat, UniProt P55926); experiment: cell-based or functional assay
[7] = biological target: human heteromeric ASIC1a+ASIC2a channel (human, UniProt P78348); experiment: cell-based or functional assay

| Molecule | inhibition of the acid-evoked ASIC current, patch clamp whole cell, COS cells [1] [nM] | inhibition of the acid-evoked ASIC current, patch clamp whole cell, COS cells [2] [nM] | inhibition of the acid-evoked ASIC current, patch clamp whole cell, COS cells [3] [nM] | inhibition of the acid-evoked ASIC current, patch clamp whole cell, COS cells [4] [nM] | inhibition of the acid-evoked ASIC current, patch clamp whole cell, COS cells [5] [nM] | inhibition of the acid-evoked ASIC current, patch clamp whole cell, COS cells [6] [nM] | inhibition of the acid-evoked ASIC current, patch clamp whole cell, COS cells [7] [nM] |
| --- | --- | --- | --- | --- | --- | --- | --- |
| ASICalgin-1 (π-Dp1) (peptide) | 650 | – | – | – | – | – | – |
| ASICalgin-2 (π-Dp2) (peptide) peptide: LKCFQHGKVVTCHRDMKFCYHNTGMPFRNLKLILQGCSSSCSETENNKCCSTDRCNK | – | 650 | 49 | 127 | 223 | 308 | 308 |
| ASICalgin-1 (π-Dp1) (peptide) peptide: LKCYQHGKVVTCHRDMKFCYHNTGMPFRNLKLILQGCSSSCSETENNKCCSTDRCNK | – | – | 49 | 127 | 223 | 308 | 308 |
